Reference: patent US20230081195A1 (INSTITUTE OF GENETICS AND DEVELOPMENT BIOLOGY CHINESE …, published 2023)

Columns and labels:
[1] = molecular target: T1, nLUC (firefly, UniProt P08659 1-416 = luciferase); assay: firefly luciferase complementation imaging, co-expression in N. benthamiana leaves
T1 construct: Control of the luciferase complementation imaging assay
Description: (§1) (A) OML4 interacts with GSK2 in yeast cells. Yeast cells were cultured on SD/-Trp-Leu or SD/-Trp-Leu-His-Ade media. (B) OML4 associates with GSK2 in N. benthamiana. OML4-nLUC and GSK2-cLUC were co-expressed in N. benthamiana leaves. Luciferase activity was observed 48 hours after infiltration. The range of luminescence intensity was scaled by the pseudocolor bar. (C) Bimolecular fluorescence complementation (BiFC) assays shown that OML4 interacts with GSK2 in N. benthamiana. OML4-cYFP was coexpressed with GSK2-nYFP in leaves of N. benthamiana. (D) OML4 binds GSK2 in vitro. GSK2-GST was incubated with OML4-MBP and pulled down by OML4-MBP and detected by immunoblot with anti-GST antibody. IB: immunoblot. (E) Interaction between OML4 and GSK2 in the Co-IP assays. Anti-MYC beads were used to immunoprecipitate GSK2-GFP proteins. Gel blots were probed with anti-MYC or anti-GFP antibody. Bars: 50 μm in C.
(§2) We next verified the interaction between OML4 and GSK2 in plant cells using the firefly luciferase (LUC) complementation imaging assay (FIG. 5B). The OML4-nLUC and GSK2-cLUC were transformed and co-expressed in N. benthamiana leaves. […] We then performed bimolecular fluorescence complementation (BiFC) assay to test the interaction between OML4 and GSK2 in plant cells (FIG. 5C). […]

[2] = molecular target: T2, OML4-nLUC (rice; firefly, UniProt Q64M78 1-1001); assay: firefly luciferase complementation imaging in N. benthamiana leaves
T2 construct: Co-expressed in N. benthamiana leaves; Order of the pieces follows the printed name; not shown: N-terminal fragment of firefly luciferase (nLUC)
T2 sequence: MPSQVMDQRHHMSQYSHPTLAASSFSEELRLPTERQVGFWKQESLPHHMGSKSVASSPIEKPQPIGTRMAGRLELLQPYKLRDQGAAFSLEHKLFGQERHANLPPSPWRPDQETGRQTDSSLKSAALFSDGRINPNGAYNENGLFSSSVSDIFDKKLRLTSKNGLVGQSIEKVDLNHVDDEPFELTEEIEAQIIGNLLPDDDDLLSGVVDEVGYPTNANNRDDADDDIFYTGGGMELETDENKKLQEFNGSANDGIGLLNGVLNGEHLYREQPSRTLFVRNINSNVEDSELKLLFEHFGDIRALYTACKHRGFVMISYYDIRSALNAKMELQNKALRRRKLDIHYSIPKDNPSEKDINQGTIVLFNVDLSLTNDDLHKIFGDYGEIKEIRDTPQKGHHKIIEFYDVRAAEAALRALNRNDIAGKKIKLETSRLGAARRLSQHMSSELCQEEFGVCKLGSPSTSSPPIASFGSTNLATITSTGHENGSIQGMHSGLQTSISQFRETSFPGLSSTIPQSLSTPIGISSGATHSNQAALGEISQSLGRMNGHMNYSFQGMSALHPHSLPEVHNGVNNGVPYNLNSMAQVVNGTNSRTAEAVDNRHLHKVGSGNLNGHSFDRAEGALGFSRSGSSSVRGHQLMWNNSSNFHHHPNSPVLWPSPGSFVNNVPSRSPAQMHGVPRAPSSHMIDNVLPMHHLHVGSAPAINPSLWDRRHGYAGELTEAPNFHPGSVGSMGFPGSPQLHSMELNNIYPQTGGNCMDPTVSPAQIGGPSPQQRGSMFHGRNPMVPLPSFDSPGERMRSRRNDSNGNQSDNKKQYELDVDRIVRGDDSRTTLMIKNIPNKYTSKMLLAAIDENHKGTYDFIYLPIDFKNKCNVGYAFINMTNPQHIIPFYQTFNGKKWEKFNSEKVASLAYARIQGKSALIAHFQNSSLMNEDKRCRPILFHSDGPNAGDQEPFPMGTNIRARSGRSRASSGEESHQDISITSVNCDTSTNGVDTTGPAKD
Description: as §1, §2

T1 sequence (P08659 1-416): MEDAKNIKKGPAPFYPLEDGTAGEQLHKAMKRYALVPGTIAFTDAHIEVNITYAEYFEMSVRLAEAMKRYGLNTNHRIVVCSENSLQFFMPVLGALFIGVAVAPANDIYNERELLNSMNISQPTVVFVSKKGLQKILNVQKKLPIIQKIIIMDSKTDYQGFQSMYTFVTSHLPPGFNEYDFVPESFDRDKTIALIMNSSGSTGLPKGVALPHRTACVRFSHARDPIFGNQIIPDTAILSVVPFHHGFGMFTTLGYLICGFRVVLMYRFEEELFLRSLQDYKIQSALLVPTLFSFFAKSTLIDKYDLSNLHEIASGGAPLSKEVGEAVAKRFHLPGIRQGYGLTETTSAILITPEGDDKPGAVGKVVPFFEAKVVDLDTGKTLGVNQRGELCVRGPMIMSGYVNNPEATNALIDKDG

B1: GSK2-cLUC (enzyme)
chain: MDQPAPAPEPMLLDAQPPAAVACDKKQQEGEAPYAEGNDAVTGHIISTTIGGKNGEPKRTISYMAERVVGTGSFGIVFQAKCLETGETVAIKKVLQDRRYKNRELQLMRAMDHPNVISLKHCFFSTTSRDELFLNLVMEYVPETLYRVLKHYSNANHRMPLIYVKLYMYQLFRGLAYIHTVPGVCHRDVKPQNVLVDPLTHQVKLCDFGSAKTLVPGEPNISYICSRYYRAPELIFGATEYTTSIDIWSAGCVLAELLLGQPLFPGESAVDQLVEIIKVLGTPTREEIRCMNPNYTEFRFPQIKAHPWHKVFHKRMPPEAIDLASRLLQYSPSLRCTALDACAHPFFDELREPNARLPNGRPFPPLFNFKHELANSSQELISRLIPEHVRRQATHNFFNTGS
notes: Co-expressed in N. benthamiana leaves; Order of the pieces follows the printed name; not shown: C-terminal fragment of firefly luciferase (cLUC)
B1: no binding [1]; binds [2].
